What was measured:
[1] = biological target: T1, human FcγRIIb extracellular domain with C-terminal His-tag (human, UniProt P31994 43-217); test: SPR Biacore, antibody captured, FcgR analyte
T1 construct: also called human FcgRIIb; not shown: His-tag added to C-terminus
T1 sequence: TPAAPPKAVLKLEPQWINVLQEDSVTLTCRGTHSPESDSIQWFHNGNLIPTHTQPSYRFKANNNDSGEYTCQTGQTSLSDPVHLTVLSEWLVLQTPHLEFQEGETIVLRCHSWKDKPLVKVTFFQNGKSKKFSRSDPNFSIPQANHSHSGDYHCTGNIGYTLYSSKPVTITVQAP

[2] = biological target: T2, human FcγRIIaH extracellular domain with C-terminal His-tag (human, UniProt P12318 34-217); test: SPR Biacore, antibody captured, FcgR analyte
T2 construct: also called human FcgRIIaH; FcγRIIa (type H); not shown: His-tag added to C-terminus
T2 sequence: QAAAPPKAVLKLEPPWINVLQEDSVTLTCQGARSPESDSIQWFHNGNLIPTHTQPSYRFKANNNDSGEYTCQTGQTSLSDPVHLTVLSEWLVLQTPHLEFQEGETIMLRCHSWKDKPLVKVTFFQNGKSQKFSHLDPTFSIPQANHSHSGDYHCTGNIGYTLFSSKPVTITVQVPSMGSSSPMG

[3] = biological target: T3, human FcγRIIaR extracellular domain with C-terminal His-tag (human, UniProt P12318 34-217); test: SPR Biacore, antibody captured, FcgR analyte
T3 construct: also called human FcgRIIaR; FcγRIIa (type R); not shown: His-tag added to C-terminus
T3 chain: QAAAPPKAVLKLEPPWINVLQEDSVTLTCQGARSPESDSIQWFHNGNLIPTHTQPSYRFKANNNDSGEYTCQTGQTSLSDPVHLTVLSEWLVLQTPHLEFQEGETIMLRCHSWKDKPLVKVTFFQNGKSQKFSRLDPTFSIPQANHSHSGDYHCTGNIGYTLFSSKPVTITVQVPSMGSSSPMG

[4] = biological target: T4, cynomolgus monkey FcγRIIIaS extracellular domain with C-terminal His-tag (cynomolgus monkey, UniProt A3RFZ7 21-206 (rhesus entry)); test: SPR Biacore, antibody captured, FcgR analyte
T4 construct: also called cyno FcgRIIIaS; cynoFcγRIIIaS; not shown: His-tag added to C-terminus

[5] = biological target: T5, cynomolgus monkey FcγRIIb extracellular domain with C-terminal His-tag (cynomolgus monkey); test: SPR; KD of SG1 / KD of variant
T5 construct: also called cyno FcγRIIb; cynoFcγRIIb
T5 chain: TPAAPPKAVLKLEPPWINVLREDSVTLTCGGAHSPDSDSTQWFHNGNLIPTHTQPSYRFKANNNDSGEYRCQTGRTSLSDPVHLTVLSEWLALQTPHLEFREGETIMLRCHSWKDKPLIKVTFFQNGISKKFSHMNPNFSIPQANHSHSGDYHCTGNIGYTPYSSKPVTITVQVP
Procedure: (§1) The kinetic analysis of interactions between these antibodies and FcγR was carried out using BIACORE® T200 or BIACORE® 4000 (GE Healthcare). HBS-EP+ (GE Healthcare) was used as the running buffer, and the measurement temperature was set to 25° C. […] After the measurement, the antibody captured on the chip was washed off by allowing reaction with 10 mM glycine-HCl, pH1.5 and 25 mM NaOH so that the chip was regenerated and used repeatedly. The sensorgrams obtained as measurement results were analyzed by the 1:1 Langmuir binding model using the BIACORE® Evaluation Software to calculate the binding rate constant ka (L/mol/s) and dissociation rate constant kd (1/s), and the dissociation constant KD (mol/L) was calculated from these values. […] Regarding such interactions, KD values were calculated using the following 1:1 binding model described in BIACORE® T100 Software Handbook BR1006-48 Edition AE.

[6] = biological target: T6, human FcγRIIaR extracellular domain with C-terminal His-tag (human, UniProt P12318 34-217); test: SPR; KD of SG1 / KD of variant
T6 construct: also called human FcγRIIa (type R); FcgRIIaR
T6 chain: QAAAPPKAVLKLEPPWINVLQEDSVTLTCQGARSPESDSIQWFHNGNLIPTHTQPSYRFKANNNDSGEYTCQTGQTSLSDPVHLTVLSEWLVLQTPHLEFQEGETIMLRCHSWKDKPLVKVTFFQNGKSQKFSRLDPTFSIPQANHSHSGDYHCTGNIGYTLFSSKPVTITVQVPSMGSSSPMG
Procedure: as §1

[7] = biological target: T7, cynomolgus monkey FcγRIIIaS extracellular domain with C-terminal His-tag (cynomolgus monkey, UniProt Q8SPW2 21-206 at identity 1.00)); test: SPR; KD of SG1 / KD of variant
T7 construct: also called cyno FcγRIIIaS; FcgRIIIaS
T7 chain: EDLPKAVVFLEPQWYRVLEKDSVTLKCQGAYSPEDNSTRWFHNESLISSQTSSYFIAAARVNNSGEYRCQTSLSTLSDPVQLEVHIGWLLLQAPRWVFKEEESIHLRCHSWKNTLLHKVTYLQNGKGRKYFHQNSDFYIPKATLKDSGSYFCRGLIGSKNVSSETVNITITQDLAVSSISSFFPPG
Procedure: as §1

[8] = biological target: T8, cynomolgus monkey FcγRIIa3 extracellular domain with C-terminal His-tag (cynomolgus monkey); test: SPR; KD of SG1 / KD of variant
T8 construct: also called cyno FcγRIIa3; FcgRIIa3
T8 chain: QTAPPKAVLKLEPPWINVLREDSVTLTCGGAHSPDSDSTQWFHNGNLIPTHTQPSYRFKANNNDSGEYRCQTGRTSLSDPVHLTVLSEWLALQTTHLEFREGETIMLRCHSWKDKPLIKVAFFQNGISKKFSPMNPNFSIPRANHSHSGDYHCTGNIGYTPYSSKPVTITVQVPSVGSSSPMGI
Procedure: as §1

[9] = biological target: T9, cynomolgus monkey FcγRIIa3 extracellular domain with C-terminal His-tag (cynomolgus monkey); test: SPR Biacore, antibody captured, FcgR analyte
T9 construct: also called cyno FcgRIIa3; cynoFcγRIIa3; not shown: His-tag added to C-terminus
T9 chain: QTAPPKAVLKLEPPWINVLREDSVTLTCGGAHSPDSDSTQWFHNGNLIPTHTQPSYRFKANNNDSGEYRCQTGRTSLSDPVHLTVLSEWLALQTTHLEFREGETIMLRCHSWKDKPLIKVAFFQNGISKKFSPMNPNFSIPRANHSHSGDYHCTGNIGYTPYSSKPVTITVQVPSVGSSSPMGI

Row | Binder | KD fold (SG1 = 1) [3] [fold] | KD fold (SG1 = 1) [4] [fold] | KD fold (SG1 = 1) [5] [fold] | KD fold (SG1 = 1) [6] [fold] | KD fold (SG1 = 1) [7] [fold] | also measured
1 | M103205H795-MY177/M103202L889-SK1 (antibody, human IgG1, kappa, name in EU numbering, EU numbering) heavy: QVTLKESGPVLVKPTETLTLTCTVSGIDLSHDDISWVRQAPGKGLEWVGIISYAGSTYYASWAKGRLTISKDTSKNQVVLTMTNMDPVDTATYYCARGVPAYSHGGDLWGQGTLVTVSSASTKGPSVFPLAPSSKSTSGGTAALGCLVKDYFPEPVTVSWNSGALTSGVHTFPAVLQSSGLYSLSSVVTVPSSSLGTQTYICNVNHKPSNTKVDKKVEPKSCDKTHTCPPCPAPELLNGPSVFLFPPKPKDTLMISRTPEVTCVVVDVSEEDPEVKFNWYVDGVEVHNAKTKPREEQYNSTYRVVSVLTVLHQDWLNGKEYKCKVSNKALPAPIEKTISKAKGQPREPQVYTLPPSREEMTKNQVSLTCLVKGFYPSDIAVEWESNGQPENNYKTTPNVLDSDGSFFLYSKLTVDKSRWQQGNVFSCSVMHEALHNHYTQKSLSLSP light: DIVMTQSPATLSLSPGERATLSCTSSQSVYHANWLSWFQQKPGQPPKLLIYWASTLAYGVPSRFSGSGSGTDFTLTISSLQPEDAATYYCAGGYGGGRYAFGQGTKVEIKRTVAAPSVFIFPPSDEQLKSGTASVVCLLNNFYPREAKVQWKVDNALQSGNSQESVTEQDSKDSTYSLSSTLTLSKADYEKHKVYACEVTHQGLSSPVTKSFNRGEC | 0.1 | 0.12 |  |  |  | Kd [1]: 1100 nM; Kd [2]: 1000 nM; Kd [3]: 2000 nM; Kd [4]: 2900 nM
2 | M103205H795-MY309 (heavy chain) with M103202L889-SK1 (light chain) (antibody, human IgG1, kappa, name in EU numbering, Substitutions introduced into M103205H795-SG1; positions in EU numbering) heavy: QVTLKESGPVLVKPTETLTLTCTVSGIDLSHDDISWVRQAPGKGLEWVGIISYAGSTYYASWAKGRLTISKDTSKNQVVLTMTNMDPVDTATYYCARGVPAYSHGGDLWGQGTLVTVSSASTKGPSVFPLAPSSKSTSGGTAALGCLVKDYFPEPVTVSWNSGALTSGVHTFPAVLQSSGLYSLSSVVTVPSSSLGTQTYICNVNHKPSNTKVDKKVEPKSCDKTHTCPPCPAPELLTGPSVFLFPPKPKDTLMISRTPEVTCVVVDVSEEDPEVKFNWYVDGVEVHNAKTKPREEQYNSTYRVVSVLTVLHQDWLNGKEYKCKVSNKALPKPIEKTISKAKGQPREPQVYTLPPSREEMTKNQVSLTCLVKGFYPSDIAVEWESNGQPENNYKTTPMVLDSDGSFFLYSKLTVDKSRWQQGNVFSCSVMHEALHNHYTQKSLSLSP light: DIVMTQSPATLSLSPGERATLSCTSSQSVYHANWLSWFQQKPGQPPKLLIYWASTLAYGVPSRFSGSGSGTDFTLTISSLQPEDAATYYCAGGYGGGRYAFGQGTKVEIKRTVAAPSVFIFPPSDEQLKSGTASVVCLLNNFYPREAKVQWKVDNALQSGNSQESVTEQDSKDSTYSLSSTLTLSKADYEKHKVYACEVTHQGLSSPVTKSFNRGEC |  |  | 2.5 | 4.2 | 0.3 | 
3 | M103205H795-MY316 (heavy chain) with M103202L889-SK1 (light chain) (antibody, human IgG1, kappa, name in EU numbering, Substitutions introduced into M103205H795-SG1; positions in EU numbering) heavy: QVTLKESGPVLVKPTETLTLTCTVSGIDLSHDDISWVRQAPGKGLEWVGIISYAGSTYYASWAKGRLTISKDTSKNQVVLTMTNMDPVDTATYYCARGVPAYSHGGDLWGQGTLVTVSSASTKGPSVFPLAPSSKSTSGGTAALGCLVKDYFPEPVTVSWNSGALTSGVHTFPAVLQSSGLYSLSSVVTVPSSSLGTQTYICNVNHKPSNTKVDKKVEPKSCDKTHTCPPCPAPELLLGPSVFLFPPKPKDTLMISRTPEVTCVVVDVSEEDPEVKFNWYVDGVEVHNAKTKPREELYNSTYRVVSVLTVLHQDWLNGKEYKCKVSNKALPKPIEKTISKAKGQPREPQVYTLPPSREEMTKNQVSLTCLVKGFYPSDIAVEWESNGQPENNYKTTPKVLDSDGSFFLYSKLTVDKSRWQQGNVFSCSVMHEALHNHYTQKSLSLSP light: DIVMTQSPATLSLSPGERATLSCTSSQSVYHANWLSWFQQKPGQPPKLLIYWASTLAYGVPSRFSGSGSGTDFTLTISSLQPEDAATYYCAGGYGGGRYAFGQGTKVEIKRTVAAPSVFIFPPSDEQLKSGTASVVCLLNNFYPREAKVQWKVDNALQSGNSQESVTEQDSKDSTYSLSSTLTLSKADYEKHKVYACEVTHQGLSSPVTKSFNRGEC |  |  | 0.9 | 1 | 0.15 | KD fold (SG1 = 1) [8]: 0.8 fold
4 | M103205H795-MY276 (heavy chain) with M103202L889-SK1 (light chain) (antibody, human IgG1, kappa, name in EU numbering, Substitutions introduced into M103205H795-SG1; positions in EU numbering) heavy: QVTLKESGPVLVKPTETLTLTCTVSGIDLSHDDISWVRQAPGKGLEWVGIISYAGSTYYASWAKGRLTISKDTSKNQVVLTMTNMDPVDTATYYCARGVPAYSHGGDLWGQGTLVTVSSASTKGPSVFPLAPSSKSTSGGTAALGCLVKDYFPEPVTVSWNSGALTSGVHTFPAVLQSSGLYSLSSVVTVPSSSLGTQTYICNVNHKPSNTKVDKKVEPKSCDKTHTCPPCPAPELLIGPSVFLFPPKPKDTLMISRTPEVTCVVVDVSDEDPEVKFNWYVDGVEVHNAKTKPREEQYNSTYRVVSVLTVLHQDWLNGKEYKCKVSNKALPKPIEKTISKAKGQPREPQVYTLPPSREEMTKNQVSLTCLVKGFYPSDIAVEWESNGQPENNYKTTPKVLDSDGSFFLYSKLTVDKSRWQQGNVFSCSVMHEALHNHYTQKSLSLSP light: DIVMTQSPATLSLSPGERATLSCTSSQSVYHANWLSWFQQKPGQPPKLLIYWASTLAYGVPSRFSGSGSGTDFTLTISSLQPEDAATYYCAGGYGGGRYAFGQGTKVEIKRTVAAPSVFIFPPSDEQLKSGTASVVCLLNNFYPREAKVQWKVDNALQSGNSQESVTEQDSKDSTYSLSSTLTLSKADYEKHKVYACEVTHQGLSSPVTKSFNRGEC |  |  | 5.6 |  | 0.3 | 
5 | M103205H795-MY289/M103202L889-SK1 (antibody, human IgG1, kappa, name in EU numbering, substitutions in EU numbering, introduced into M103205H795-SG1) heavy: QVTLKESGPVLVKPTETLTLTCTVSGIDLSHDDISWVRQAPGKGLEWVGIISYAGSTYYASWAKGRLTISKDTSKNQVVLTMTNMDPVDTATYYCARGVPAYSHGGDLWGQGTLVTVSSASTKGPSVFPLAPSSKSTSGGTAALGCLVKDYFPEPVTVSWNSGALTSGVHTFPAVLQSSGLYSLSSVVTVPSSSLGTQTYICNVNHKPSNTKVDKKVEPKSCDKTHTCPPCPAPELLNGPSVFLFPPKPKDTLMISRTPEVTCVVVDVSHEDPEVKFNWYVDGVEVHNAKTKPREEQYNSTYRVVSVLTVLHQDWLNGKEYKCKVSNKALPKPIEKTISKAKGQPREPQVYTLPPSREEMTKNQVSLTCLVKGFYPSDIAVEWESNGQPENNYKTTPMVLDSDGSFFLYSKLTVDKSRWQQGNVFSCSVMHEALHNHYTQKSLSLSP light: DIVMTQSPATLSLSPGERATLSCTSSQSVYHANWLSWFQQKPGQPPKLLIYWASTLAYGVPSRFSGSGSGTDFTLTISSLQPEDAATYYCAGGYGGGRYAFGQGTKVEIKRTVAAPSVFIFPPSDEQLKSGTASVVCLLNNFYPREAKVQWKVDNALQSGNSQESVTEQDSKDSTYSLSSTLTLSKADYEKHKVYACEVTHQGLSSPVTKSFNRGEC | 0.3 | 0.07 |  |  |  | KD fold (SG1 = 1) [1]: 1.8 fold; KD fold (SG1 = 1) [2]: 0.8 fold; KD fold (SG1 = 1) [9]: 1 fold
